The values below come from PMC6821830.

The assay deals with TopBP1 BRCT1-6 (UniProt Q92547). In words: GST-TopBP1 pull-down from cell extract, blot. The note with it: reference: wild-type MEFs, IR-treated; sites S29.

With “E2F1 (mouse) (from UniProt Q61501) E2f1 S29A knock-in MEFs, IR-treated”, the “binding against the reference” value is listed as “lost”.
